Measurements taken from publication PMC10606890, “Studying the Association of TKS4 and CD2AP Scaffold Proteins and Their Implications in the Partial Epithelial–Mesenchymal Transition (EMT) Process” (International Journal of Molecular Sciences, 2023).

Biological target: T1, Myc-DDK-tagged human CD2-associated protein (human, UniProt Q9Y5K6 1-639)
T1 construct: human CD2-associated protein (CD2AP), full-length protein; also called Myc-tagged CD2AP; Myc-CD2AP recombinant protein; source: bought: Origene Technologies (RC210191), recombinant protein
Test: peptide or protein array; PepStar microarray of 225 TKS4 15-mers (11 overlapping residues) on a glass slide, three subarrays; recombinant Myc-CD2AP incubated 1 h at 30 °C in SmartBlock solution, TBS washes, detected with Alexa Fluor 488 anti-Myc-tag antibody; threshold 10,000 U
Settings: both partners purified

T1 sequence (Q9Y5K6 whole entry): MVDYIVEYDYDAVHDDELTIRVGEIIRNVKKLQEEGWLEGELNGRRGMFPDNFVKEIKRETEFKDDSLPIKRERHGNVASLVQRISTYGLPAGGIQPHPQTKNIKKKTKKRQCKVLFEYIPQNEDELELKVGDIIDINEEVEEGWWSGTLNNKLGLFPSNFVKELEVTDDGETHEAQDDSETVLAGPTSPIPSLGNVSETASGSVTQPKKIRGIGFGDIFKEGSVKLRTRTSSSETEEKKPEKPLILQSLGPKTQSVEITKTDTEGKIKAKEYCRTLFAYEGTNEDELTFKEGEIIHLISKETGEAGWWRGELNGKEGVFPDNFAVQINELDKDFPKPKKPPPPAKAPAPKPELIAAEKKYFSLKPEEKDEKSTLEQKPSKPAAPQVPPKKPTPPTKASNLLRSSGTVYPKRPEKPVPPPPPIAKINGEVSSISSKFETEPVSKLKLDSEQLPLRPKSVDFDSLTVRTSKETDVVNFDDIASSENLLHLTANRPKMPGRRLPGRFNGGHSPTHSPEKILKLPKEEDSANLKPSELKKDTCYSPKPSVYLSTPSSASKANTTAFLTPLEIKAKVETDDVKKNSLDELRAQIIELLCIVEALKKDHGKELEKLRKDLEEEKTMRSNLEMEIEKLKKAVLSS

| binding result | Binder |
| --- | --- |
| binds | EAPQQRPVVPPRRPP (peptide, UniProt A1X283 749-763, looked up, contains the motif 755-PVVPPR-760; source: synthetic peptide printed on a glass slide; bought: JPT Peptide Technologies (PepStar microarray)) [TKS4 peptide 188 (15-mer of the PepStar peptide microarray)] |
| binds | QRPVVPPRRPPPPKK (peptide, UniProt A1X283 753-767, looked up, contains the motif 755-PVVPPR-760; source: synthetic peptide printed on a glass slide; bought: JPT Peptide Technologies (PepStar microarray)) [TKS4 peptide 189 (15-mer of the PepStar peptide microarray)] |
